Reference: the supplement of paper PMC10201428
± gives the standard deviation of the averaged measurements.

Experiments:
[1] = system: VchCAST RNA-guided transposition machinery (E. coli BL21(DE3) host, lacZ target); assay: relative integration efficiency (T-LR orientation) vs wild-type transposon end (log2 (normalized fold change)); transposon end mutated: right end (5 bp flank + 75 bp right end); higher = more efficient transposition
Outline: (§1)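 Pools of 1549 left-end or 1849 right-end barcoded transposon variants were cloned into a pUC57 mini-transposon donor and co-transformed into E. coli BL21(DE3) with a T7-driven effector plasmid carrying a CRISPR array, tniQ-cas8-cas7-cas6 and tnsA-tnsB-tnsC. Plating used 0.1 mM IPTG at 37°C for 18 h, and input plasmids and genomic integration junctions were PCR-amplified for Illumina sequencing, with two biological output replicates and four reference barcodes. Relative integration efficiency is the log-transformed fold change of output over input barcode abundance, normalised to the reference barcodes.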

[2] = system: VchCAST RNA-guided transposition machinery (E. coli BL21(DE3) host, lacZ target); assay: relative integration efficiency (T-RL orientation) vs wild-type transposon end (log2 (normalized fold change)); transposon end mutated: right end (5 bp flank + 75 bp right end); higher = more efficient transposition
Outline: as §1

Row | Sequence | relative integration efficiency (log2) [1] | relative integration efficiency (log2) [2]
1 | ACATTTGTTGATACAACCATCAAATGATAATTACACCCATCAATTGATAATTATCACACCCATCAATTGATATTGCCTCTGATCATAGTCAGACCAACATTGCTACGACCCGTATTCGCACCGACAC | -1.14 ± 0.11 | -1.73 ± 0.26
2 | ACATTTGTTGATACAACCATCAAATGATAATTACACCCCTAAATTGATAATTATCACACCCAATTTAACTATAACGCTCTGATCATAGTCAGACCAACATTGCTACGACCCGTATTCGCACCGACAC | -0.622 ± 0.093 | -3.41 ± 0.3
3 | ACATTTGTTGATACAACCATCAAATGATAATTACACCCCTACATTGATAATTATCACACCCAATTTAACTATAACGCTCTGATCATAGTCAGACCAACATTGCTACGACCCGTATTCGCACCGACAC | -1.57 ± 0.21 | -4.12 ± 0.053
4 | ACATTTGTTGATACAACCATCAAATGATAATTCCACCCATAAATTGATAATTATCACACCCAATTTAACTATAACGCTCTGATCATAGTCAGACCAACATTGCTACGACCCGTATTCGCACCGACAC | 1.44 ± 0.11 | -1.53 ± 0.19
5 | ACATTTGTTGATACAACCATCAAATGATAATTCCACCCATACATTGATAATTATCACACCCAATTTAACTATAACGCTCTGATCATAGTCAGACCAACATTGCTACGACCCGTATTCGCACCGACAC | -0.154 ± 0.093 | -3.05 ± 0.042
6 | ACATTTGTTGATACAACCATCAAATGATAATTCCACCCCTAAATTGATAATTATCACACCCAATTTAACTATAACGCTCTGATCATAGTCAGACCAACATTGCTACGACCCGTATTCGCACCGACAC | -1.01 ± 0.31 | -3.65 ± 0.074
7 | ACATTTGTTGATACAACCATCAAATGATAATTCCACCCCTACATTGATAATTATCACACCCAATTTAACTATAACGCTCTGATCATAGTCAGACCAACATTGCTACGACCCGTATTCGCACCGACAC | -0.8 ± 0.15 | -4.18 ± 0.17
8 | ACATTTGTTGATACAACCATCAAATGGTAATTACACCCATAAATTGATAATTATCACACCCAATTTAACTATAACGCTCTGATCATAGTCAGACCAACATTGCTACGACCCGTATTCGCACCGACAC | 2.24 ± 0.09 | -0.349 ± 0.42
9 | ACATTTGTTGATACAACCATCAAATGGTAATTACACCCATACATTGATAATTATCACACCCAATTTAACTATAACGCTCTGATCATAGTCAGACCAACATTGCTACGACCCGTATTCGCACCGACAC | -1.54 ± 0.61 | -4.04 ± 0.11
10 | ACATTTGTTGATACAACCATCAAATGGTAATTACACCCCTAAATTGATAATTATCACACCCAATTTAACTATAACGCTCTGATCATAGTCAGACCAACATTGCTACGACCCGTATTCGCACCGACAC | -2.01 ± 0.77 | -4.79 ± 0.36
11 | ACATTTGTTGATACAACCATCAAATGGTAATTACACCCCTACATTGATAATTATCACACCCAATTTAACTATAACGCTCTGATCATAGTCAGACCAACATTGCTACGACCCGTATTCGCACCGACAC | -3.18 ± 1.1 | -5.5 ± 0.092
12 | ACATTTGTTGATACAACCATCAAATGGTAATTCCACCCATAAATTGATAATTATCACACCCAATTTAACTATAACGCTCTGATCATAGTCAGACCAACATTGCTACGACCCGTATTCGCACCGACAC | 0.505 ± 0.11 | -2.06 ± 0.2
13 | ACATTTGTTGATACAACCATCAAATGGTAATTCCACCCATACATTGATAATTATCACACCCAATTTAACTATAACGCTCTGATCATAGTCAGACCAACATTGCTACGACCCGTATTCGCACCGACAC | -2.28 ± 0.36 | -4.83 ± 0.15
14 | ACATTTGTTGATACAACCATCAAATGGTAATTCCACCCCTAAATTGATAATTATCACACCCAATTTAACTATAACGCTCTGATCATAGTCAGACCAACATTGCTACGACCCGTATTCGCACCGACAC | -2.59 ± 0.29 | -5.34 ± 0.16
15 | ACATTTGTTGATACAACCATCAAATGGTAATTCCACCCCTACATTGATAATTATCACACCCAATTTAACTATAACGCTCTGATCATAGTCAGACCAACATTGCTACGACCCGTATTCGCACCGACAC | -3.06 ± 0.11 | -5.71 ± 0.097
16 | ACATTTGTTGATACAACCATCCAATGATAATTACACCCATAAATTGATAATTATCACACCCATAAATTGATATTGCCTCTGATCATAGTCAGACCAACATTGCTACGACCCGTATTCGCACCGACAC | -2.03 ± 0.58 | -1.36 ± 0.083
17 | ACATTTGTTGATACAACCATCCCCTGATAATTACACCCATAAATTGATAATTATCACACCCATAAATTGATATTGCCTCTGATCATAGTCAGACCAACATTGCTACGACCCGTATTCGCACCGACAC | -1.78 ± 0.023 | -2.13 ± 0.056
18 | ACATTTGTTGATACAACCATCCCCTGATAATTACACCCATCCCGTGATAATTATCACACCCATCCCGTGATATTGCCTCTGATCATAGTCAGACCAACATTGCTACGACCCGTATTCGCACCGACAC | -3.86 ± 0.83 | -5.99 ± 0.12

Row | Sequence | relative integration efficiency (log2) [1] | relative integration efficiency (log2) [2]
19 | ACATTTGTTGATACAACCATTAAATAATAATTCCACCCATAAATTGATAATTATCACACCCAATTTAACTATAACGCTCTGATCATAGTCAGACCAACATTGCTACGACCCGTATTCGCACCGACAC | 1.55 ± 0.071 | -1.71 ± 0.2
20 | ACATTTGTTGATACAACCATTAAATGATAATTACACCCAAAAATTGATAATTATCACACCCAATTTAACTATAACGCTCTGATCATAGTCAGACCAACATTGCTACGACCCGTATTCGCACCGACAC | 2.03 ± 0.09 | -0.982 ± 0.24
21 | ACATTTGTTGATACAACCATTAAATGATAATTACACCCATAAATTGATAATAATGACACCGAATTTAACTATAACGCTCTGATCATAGTCAGACCAACATTGCTACGACCCGTATTCGCACCGACAC | 1.98 ± 0.0099 | -0.985 ± 0.22
22 | ACATTTGTTGATACAACCATTAAATGATAATTACACCCATAAATTGATAATGATGACACCGAATTTAACTATAACGCTCTGATCATAGTCAGACCAACATTGCTACGACCCGTATTCGCACCGACAC | 1.9 ± 0.16 | -1.3 ± 0.18
23 | ACATTTGTTGATACAACCATTAAATGATAATTACACCCATAAATTGATAATTGTGACACCGAATTTAACTATAACGCTCTGATCATAGTCAGACCAACATTGCTACGACCCGTATTCGCACCGACAC | 1.99 ± 0.027 | -1.2 ± 0.14
24 | ACATTTGTTGATACAACCATTAAATGATAATTACACCCATAATTTGATAATTATCACACCCAATTTAACTATAACGCTCTGATCATAGTCAGACCAACATTGCTACGACCCGTATTCGCACCGACAC | 2.23 ± 0.16 | -0.76 ± 0.025
25 | ACATTTGTTGATACAACCATTAAATGATAATTACACCCATATATTGATAATTATCACACCCAATTTAACTATAACGCTCTGATCATAGTCAGACCAACATTGCTACGACCCGTATTCGCACCGACAC | 2.04 ± 0.065 | -0.809 ± 0.018
26 | ACATTTGTTGATACAACCATTAAATGATAATTACACCCATTAATTGATAATTATCACACCCATTAATTGATATTGCCTCTGATCATAGTCAGACCAACATTGCTACGACCCGTATTCGCACCGACAC | -0.0993 ± 0.43 | -0.515 ± 0.021
27 | ACATTTGTTGATACAACCATTAAATGATAATTCCACCAATAAATTGATAATTATCACACCCAATTTAACTATAACGCTCTGATCATAGTCAGACCAACATTGCTACGACCCGTATTCGCACCGACAC | 1.37 ± 0.042 | -1.51 ± 0.17
28 | ACATTTGTTGATACAACCATTAAATGATAATTCCACCCAAAAATTGATAATTATCACACCCAATTTAACTATAACGCTCTGATCATAGTCAGACCAACATTGCTACGACCCGTATTCGCACCGACAC | 2.42 ± 0.24 | -0.813 ± 0.13
29 | ACATTTGTTGATACAACCATTAAATGATAATTCCACCCAAATATTGATAATTATCACACCCAATTTAACTATAACGCTCTGATCATAGTCAGACCAACATTGCTACGACCCGTATTCGCACCGACAC | 1.47 ± 0.08 | -1.51 ± 0.05
30 | ACATTTGTTGATACAACCATTAAATGATAATTCCACCCAGAAATTGATAATTATCACACCCAATTTAACTATAACGCTCTGATCATAGTCAGACCAACATTGCTACGACCCGTATTCGCACCGACAC | -0.278 ± 0.36 | -3.25 ± 0.24
31 | ACATTTGTTGATACAACCATTAAATGATAATTCCACCCATAAATTGATAATTATCACACCCAATTTAACTATAACGCTCTGATCATAGTCAGACCAACATTGCTACGACCCGTATTCGCACCGACAC | 2.34 ± 0.17 | -1.06 ± 0.17
32 | ACATTTGTTGATACAACCATTAAATGATAATTCCACCCATAACTTGATAATTATCACACCCAATTTAACTATAACGCTCTGATCATAGTCAGACCAACATTGCTACGACCCGTATTCGCACCGACAC | 1.93 ± 0.17 | -1.14 ± 0.15
33 | ACATTTGTTGATACAACCATTAAATGATAATTCCACCCATAATTTGATAATTATCACACCCAATTTAACTATAACGCTCTGATCATAGTCAGACCAACATTGCTACGACCCGTATTCGCACCGACAC | 2.52 ± 0.061 | -0.743 ± 0.14
34 | ACATTTGTTGATACAACCATTAAATGATAATTCCACCCATACATTGATAATTATCACACCCAATTTAACTATAACGCTCTGATCATAGTCAGACCAACATTGCTACGACCCGTATTCGCACCGACAC | 0.395 ± 0.29 | -2.63 ± 0.34
35 | ACATTTGTTGATACAACCATTAAATGATAATTCCACCCATATATTGATAATTATCACACCCAATTTAACTATAACGCTCTGATCATAGTCAGACCAACATTGCTACGACCCGTATTCGCACCGACAC | 2.16 ± 0.074 | -1.24 ± 0.15
